Results reported in patent publication US20230265152A1, “GLP-1R AGONIST / FGF21 FUSION PROTEINS” (SANOFI, priority 2020, published 2023).
Marks after values point to notes of the source that are not given here.

Tests used:
[1] = Thermal shift assay (DSF, Sypro Orange); assay type: physicochemical; conditions: Data generated via DSF
Excerpt: In addition, for some proteins, a thermal shift assay was applied to analyze thermostability in imitation of differential scanning fluorimetry (DSF or ThermoFluor™) assays (Ahmad S. et al. (2012) Protein Science 21: 433-446; Pantoliano et al. (2001) J. Biomol. Screen 6: 429-440; Niesen et al. (2007) Nat. Protoc. 2: 2212-21). This assay is based on the observation that hydrophobic fluorescent dyes, such as Sypro™ Orange (Life Technologies, cat. No. S6651), increase their fluorescence when they bind to hydrophobic patches on a protein.
Proteins were tested by mixing a solution of each protein in PBS (Gibco) with a 160x solution of Sypro™ Orange (diluted in water from a 5000X DMSO stock as provided by the supplier). The sample volume was adjusted to 20 µL with PBS. Typical conditions contained 0.8 mg/mL protein and 8x Sypro™ Orange in the final mixture, but protein concentrations could be varied between 0.4 mg/mL and 1.2 mg/mL. Samples were dispensed in 96-well PCR plates (BioRad Semi-Skirt 96 white) and shortly centrifuged to remove air bubbles. […] For excitation and quantification of fluorescence, filters for wavelengths of 485 nm and 575 nm were chosen. […] In curves of fluorescence intensity against temperature, the inflection point was chosen as the measure for the melting temperature (Tm).

[2] = Pharmacokinetics after single subcutaneous administration in mouse; assay type: in vivo, female C57Bl/6 mice; conditions: 0.3 mg/kg s.c.; assay FGF21 intact
Protocol: Plasma concentrations and pharmacokinetic parameters of GLP-1RA/FGF21 Fc fusion proteins were determined after single subcutaneous administration of 0.3 mg/kg in solution to female C57Bl/6 mice or male Cynomolgus monkeys using three different methods. Blood samples were obtained at time points from 30 minutes to 168 hours after dosing.
Plasma samples were analyzed for the intact FGF21 part of the fusion proteins with an ELISA kit (F1231-K01, Eagle Biosciences, USA). The assay utilized the two-site sandwich technique with two selected antibodies that bound to different epitopes of human intact FGF21. […] For the detection of the immunocomplex, the well was then incubated with a substrate solution in a timed reaction and then measured in a spectrophotometric microplate reader. […]
The concentration of the full-length GLP-1RA/FGF21 Fc fusion proteins in plasma were determined utilizing an ELISA method. […] Following washing 3 times with 300 µL PBS-T 150 µL read buffer was added to the wells.
Plasma samples were analyzed for the intact GLP-1 part of the fusion proteins with a GLP-1 ELISA method. […] Following washing 3 times with 300 µL PBS-T, 150 µL read buffer was added to the wells.
The pharmacokinetic parameters were calculated by the program WinNonlin 6.4 using a non-compartmental model and linear trapezoidal interpolation calculation. […]

B1: 252 (protein)
chain: GHPIPDSSPLLQFGGQVRQRYLYTDDAQQTEAHLEIREDGTVGGAADQSPESLLQLKALKPGVIQILGVKTSRFLCQRPDGALYGSLHFDPEACSFRELLLEDGYNVYQSEAHGLPLHLPGNKSPHRDPAPRGPARFLPLPGLPPAPPEPPGILAPQPPDVGSSDPLSMVGPSQGRSPSYAS
modifications: G-FGF21
Which Tm [1] does the source give for B1 here?
The Tm was 43.1 * °C.

What about the t½ mouse [2] of the same molecule?
The t½ mouse was 42 min.
